Experiment [1] concerns the target CD21 on mouse B cells (mouse) (UniProt P19070). Nature of the experiment: cell-based or functional assay.
Experiment [2] concerns the target CD21 on Raji B lymphoblastoid cells (human) (UniProt P20023). Nature of the experiment: 50% inhibition of specific binding of [125I]HEL-C3d2 to Raji cells expressing CD21; two experiments.
The target of experiment [3] is transgenic membrane IgM and IgD specific for HEL on mouse B cells. Nature of the experiment: transgenic B cells incubated with 3 nM protein for 10 min, free sites read by subsequent binding of fluorescein-conjugated HEL.
The target is the same in experiment [4]. Nature of the experiment: cell-based or functional assay.

pIC50: −log10 of the molar value.

Chain of CD21 on mouse B cells (mouse) (P19070 12-1025): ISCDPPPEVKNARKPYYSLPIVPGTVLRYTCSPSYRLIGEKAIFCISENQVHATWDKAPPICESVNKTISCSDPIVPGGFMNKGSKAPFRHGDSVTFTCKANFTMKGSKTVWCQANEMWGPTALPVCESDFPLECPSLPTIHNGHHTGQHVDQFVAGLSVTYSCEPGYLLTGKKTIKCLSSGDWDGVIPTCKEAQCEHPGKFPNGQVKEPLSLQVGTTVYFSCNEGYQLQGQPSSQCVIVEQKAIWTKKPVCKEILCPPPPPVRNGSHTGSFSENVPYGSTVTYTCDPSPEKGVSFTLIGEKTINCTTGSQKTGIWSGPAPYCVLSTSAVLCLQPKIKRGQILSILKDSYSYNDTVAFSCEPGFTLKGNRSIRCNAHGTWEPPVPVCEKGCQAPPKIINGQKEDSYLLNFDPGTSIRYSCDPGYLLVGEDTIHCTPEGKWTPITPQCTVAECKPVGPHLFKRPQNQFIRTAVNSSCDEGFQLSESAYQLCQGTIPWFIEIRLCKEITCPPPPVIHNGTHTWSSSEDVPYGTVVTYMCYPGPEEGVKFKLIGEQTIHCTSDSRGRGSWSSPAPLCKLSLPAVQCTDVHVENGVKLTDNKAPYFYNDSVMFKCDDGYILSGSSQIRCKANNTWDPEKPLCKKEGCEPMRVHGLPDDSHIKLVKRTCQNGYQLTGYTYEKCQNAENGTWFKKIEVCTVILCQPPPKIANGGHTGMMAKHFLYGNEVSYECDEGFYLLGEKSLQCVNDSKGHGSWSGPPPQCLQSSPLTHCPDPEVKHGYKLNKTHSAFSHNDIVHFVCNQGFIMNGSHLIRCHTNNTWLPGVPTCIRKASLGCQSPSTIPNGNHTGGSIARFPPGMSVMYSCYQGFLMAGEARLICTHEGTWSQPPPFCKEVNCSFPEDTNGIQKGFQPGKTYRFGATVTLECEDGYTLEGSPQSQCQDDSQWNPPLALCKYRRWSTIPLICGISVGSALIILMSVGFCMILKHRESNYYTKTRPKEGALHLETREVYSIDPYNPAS
Chain of CD21 on Raji B lymphoblastoid cells (human) (P20023 21-1033): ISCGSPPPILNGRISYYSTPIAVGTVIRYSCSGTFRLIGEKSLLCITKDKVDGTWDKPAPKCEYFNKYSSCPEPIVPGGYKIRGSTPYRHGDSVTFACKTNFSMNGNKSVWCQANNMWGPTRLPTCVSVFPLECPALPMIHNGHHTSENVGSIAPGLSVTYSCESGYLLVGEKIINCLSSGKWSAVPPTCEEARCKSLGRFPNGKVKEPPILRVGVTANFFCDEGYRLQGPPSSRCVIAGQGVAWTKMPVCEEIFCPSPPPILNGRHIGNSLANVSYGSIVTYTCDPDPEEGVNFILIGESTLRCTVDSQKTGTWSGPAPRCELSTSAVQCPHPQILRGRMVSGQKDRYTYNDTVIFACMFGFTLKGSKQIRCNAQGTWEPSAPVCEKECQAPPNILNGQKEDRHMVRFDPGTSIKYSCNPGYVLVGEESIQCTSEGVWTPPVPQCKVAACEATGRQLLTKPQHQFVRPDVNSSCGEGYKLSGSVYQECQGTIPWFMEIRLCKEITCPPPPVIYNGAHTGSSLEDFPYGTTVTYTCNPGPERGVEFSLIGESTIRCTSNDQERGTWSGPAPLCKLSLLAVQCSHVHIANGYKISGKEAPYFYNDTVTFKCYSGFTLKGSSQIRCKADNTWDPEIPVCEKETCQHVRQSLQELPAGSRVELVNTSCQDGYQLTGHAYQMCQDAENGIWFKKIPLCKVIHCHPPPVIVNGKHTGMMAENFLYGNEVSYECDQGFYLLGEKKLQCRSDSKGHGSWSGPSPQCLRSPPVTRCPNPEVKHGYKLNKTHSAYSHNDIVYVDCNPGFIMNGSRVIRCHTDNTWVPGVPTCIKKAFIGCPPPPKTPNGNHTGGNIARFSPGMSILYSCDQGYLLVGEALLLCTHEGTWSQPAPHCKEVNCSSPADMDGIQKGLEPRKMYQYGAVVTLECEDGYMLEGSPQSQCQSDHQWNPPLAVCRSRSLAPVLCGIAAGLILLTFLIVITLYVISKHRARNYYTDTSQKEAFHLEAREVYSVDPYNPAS

The pIC50 is the negative decadic logarithm of the IC50, by convention in mol/L. A higher pIC50 goes with a low IC50. “HEL-C3d2 recombinant fusion protein (hen egg lysozyme fused to two murine C3d) (from UniProt P00698 19-147; P01027 1006-1302; P01027 1006-1302)” came in with a threshold for increase in [Ca2+]i in HEL-specific B cells in experiment [1] of 0.07 nM. This substance also showed a pIC50 in experiment [2] of 7.70 to 8.10.

Take “HEL-C3d3 recombinant fusion protein (hen egg lysozyme fused to three murine C3d) (from UniProt P00698 19-147; P01027 1006-1302; P01027 1006-1302; P01027 1006-1302)”: the threshold for increase in [Ca2+]i in HEL-specific B cells in experiment [1] worked out at 0.007 nM. Further, the % saturation of the anti-HEL sites in experiment [3] was found to be 47%.

Turning to “HEL-C3d recombinant fusion protein (hen egg lysozyme fused to one murine C3d) (from UniProt P00698 19-147; P01027 1006-1302)”, the threshold for increase in [Ca2+]i in HEL-specific B cells in experiment [1] was 0.7 nM.

In experiment [4], “recombinant hen egg lysozyme with YL1/2 epitope tag (HEL.YL) (from UniProt P00698 19-147)” returned a threshold for increase in [Ca2+]i in HEL-specific B cells (nM (printed as '7 n')) of 7. This substance came in with a % saturation of the anti-HEL sites in experiment [3] of 51%.

Values taken from US6891027.
